The text below walks through data of IntAct's records for PubMed 22252131.

Assay [1] concerns the target hakai_mouse Cbll1 (UniProt Q9JIY2).
Assay [2] shares this target. This is another data set of the same source.
For assay [3] the target is unchanged. The source holds these as a separate data set.
For assay [4] the target is unchanged. This is another data set of the same source.

Sequence of hakai_mouse Cbll1 (Q9JIY2 whole entry): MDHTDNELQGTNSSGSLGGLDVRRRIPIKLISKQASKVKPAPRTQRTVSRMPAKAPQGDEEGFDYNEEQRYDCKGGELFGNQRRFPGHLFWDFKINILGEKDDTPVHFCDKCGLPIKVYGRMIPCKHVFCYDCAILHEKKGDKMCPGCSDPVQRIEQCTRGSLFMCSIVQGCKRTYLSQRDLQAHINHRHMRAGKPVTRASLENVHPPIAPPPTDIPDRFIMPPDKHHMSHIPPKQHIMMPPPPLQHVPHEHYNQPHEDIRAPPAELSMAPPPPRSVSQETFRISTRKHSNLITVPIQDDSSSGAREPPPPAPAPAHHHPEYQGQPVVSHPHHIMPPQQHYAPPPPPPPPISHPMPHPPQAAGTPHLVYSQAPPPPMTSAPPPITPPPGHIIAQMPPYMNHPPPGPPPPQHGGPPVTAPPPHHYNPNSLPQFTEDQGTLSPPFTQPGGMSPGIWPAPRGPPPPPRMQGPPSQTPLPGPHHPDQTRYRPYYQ
Sequence of Src substrate cortactin (Mus musculus), Q60598 E478A (Q60598 whole entry E478A): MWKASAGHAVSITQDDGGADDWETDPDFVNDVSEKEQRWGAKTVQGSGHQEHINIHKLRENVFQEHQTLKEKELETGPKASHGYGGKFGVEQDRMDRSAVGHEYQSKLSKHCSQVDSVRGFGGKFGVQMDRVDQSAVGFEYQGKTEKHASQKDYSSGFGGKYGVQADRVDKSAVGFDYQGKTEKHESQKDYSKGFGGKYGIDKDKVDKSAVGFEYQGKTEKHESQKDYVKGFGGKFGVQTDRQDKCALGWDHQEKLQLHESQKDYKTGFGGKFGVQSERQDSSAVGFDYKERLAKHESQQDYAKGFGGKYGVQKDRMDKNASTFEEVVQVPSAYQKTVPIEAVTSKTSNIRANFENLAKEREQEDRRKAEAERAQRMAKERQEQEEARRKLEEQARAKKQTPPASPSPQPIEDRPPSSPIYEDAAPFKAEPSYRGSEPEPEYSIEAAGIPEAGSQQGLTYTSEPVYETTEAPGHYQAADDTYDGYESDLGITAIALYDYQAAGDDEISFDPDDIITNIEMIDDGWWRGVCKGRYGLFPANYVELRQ
Sequence of Src substrate cortactin (Mus musculus), Q60598 Y482F (Q60598 whole entry Y482F): as the sequence (Q60598 whole entry E478A) above, with A478E, Y482F counted along it
Sequence of Src substrate cortactin (Mus musculus), Q60598 D480A (Q60598 whole entry D480A): as the sequence (Q60598 whole entry E478A) above, with A478E, D480A counted along it

Turning to “Src substrate cortactin (Mus musculus), Q60598 Y482F”, the “effect of a mutation on the interaction” value in the assay with hakai_mouse Cbll1 [1] is on record as “disrupting interaction”.
Take “Src substrate cortactin (Mus musculus), Q60598 D480A”: the “effect of a mutation on the interaction” value with hakai_mouse Cbll1 [2] was “decreasing interaction”.
With “Src substrate cortactin (Mus musculus), Q60598 E478A”, the “effect of a mutation on the interaction” value with hakai_mouse Cbll1 [3] was “decreasing interaction”.
Turning to “Src substrate cortactin (Mus musculus), Q60598 E486A”, the “effect of a mutation on the interaction” value with hakai_mouse Cbll1 [4] is listed as “disrupting interaction”.
